Experimental data: publication PMC5504490 (Journal of Proteome Research, 2017)

Molecular target: RNAP β′ subunit with 6his (rpoC-6his), in purified RNAP (B. subtilis (strain BS200), UniProt P37871 1-1199)
Assay: cross-linking

RNAP β′ subunit with 6his (rpoC-6his), in purified RNAP, sequence (P37871 whole entry): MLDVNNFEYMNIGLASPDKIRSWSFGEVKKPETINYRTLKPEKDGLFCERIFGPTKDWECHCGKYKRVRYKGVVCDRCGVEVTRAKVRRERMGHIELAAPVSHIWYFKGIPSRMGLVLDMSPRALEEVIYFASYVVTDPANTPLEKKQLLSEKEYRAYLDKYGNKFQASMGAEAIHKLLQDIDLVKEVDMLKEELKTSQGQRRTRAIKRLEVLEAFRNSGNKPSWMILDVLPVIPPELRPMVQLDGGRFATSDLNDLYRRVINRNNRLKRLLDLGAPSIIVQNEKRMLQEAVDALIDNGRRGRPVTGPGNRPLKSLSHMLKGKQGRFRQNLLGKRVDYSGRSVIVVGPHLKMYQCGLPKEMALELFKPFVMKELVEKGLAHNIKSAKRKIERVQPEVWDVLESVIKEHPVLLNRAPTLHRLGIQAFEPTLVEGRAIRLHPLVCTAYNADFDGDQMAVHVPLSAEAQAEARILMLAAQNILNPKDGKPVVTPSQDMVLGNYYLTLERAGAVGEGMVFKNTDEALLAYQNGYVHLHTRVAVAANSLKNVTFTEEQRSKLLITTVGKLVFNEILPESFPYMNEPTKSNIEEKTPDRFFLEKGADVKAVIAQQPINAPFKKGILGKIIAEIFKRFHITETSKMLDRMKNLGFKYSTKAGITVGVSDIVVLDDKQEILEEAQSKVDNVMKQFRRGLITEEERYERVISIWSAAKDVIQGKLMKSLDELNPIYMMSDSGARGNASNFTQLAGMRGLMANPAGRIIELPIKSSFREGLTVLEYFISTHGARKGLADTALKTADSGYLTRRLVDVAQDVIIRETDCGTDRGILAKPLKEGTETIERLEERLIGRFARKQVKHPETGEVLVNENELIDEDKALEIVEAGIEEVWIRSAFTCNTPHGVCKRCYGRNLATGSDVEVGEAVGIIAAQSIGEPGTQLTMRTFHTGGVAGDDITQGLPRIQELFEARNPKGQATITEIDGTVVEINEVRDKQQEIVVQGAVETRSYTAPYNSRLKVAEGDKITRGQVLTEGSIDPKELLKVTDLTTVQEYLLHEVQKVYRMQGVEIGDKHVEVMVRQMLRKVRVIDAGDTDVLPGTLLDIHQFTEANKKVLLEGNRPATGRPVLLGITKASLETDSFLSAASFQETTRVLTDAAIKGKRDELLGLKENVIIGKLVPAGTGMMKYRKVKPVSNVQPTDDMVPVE

binding result: binds
B1: δ subunit (RpoE) of RNAP (natural protein)
chain: MGIKQYSQEELKEMALVEIAHELFEEHKKPVPFQELLNEIASLLGVKKEELGDRIAQFYTDLNIDGRFLALSDQTWGLRSWYPYDQLDEETQPTVKAKKKKAKKAVEEDLDLDEFEEIDEDDLDLDEVEEELDLEADDFDEEDLDEDDDDLEIEEDIIDEDDEDYDDEEEEIK
